Experimental findings from the domain aggregation screens of Martell et al. (2025) are described below.

Bounds are passed on as bounds.

The data set can be described thus: soluble fraction after stress (log2 fold change); higher = more stays soluble; pooled small domains, quantitative proteomics. Particulars: stress: pH 4. The method in brief:
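Aggregation propensity here comes from the fold change in the soluble amount of each small protein domain after acid stress, measured in pooled custom libraries by high-throughput quantitative proteomics. The acid stress was pH 4. On the log2 scale, higher values mean more of the domain stayed soluble.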
Turning to “HMVEYFDDENLDAFIGRESDSYTEKEIEQFREILYTMNQKEVADWNRSLTIRGINIPNDLKDEMIMMI”, the “soluble fraction (log2)” value is -2.71. Take “HMVEYIENINLSEKQKFIAHEILKEIRGRAIFLRDVGLDYLNLSRKAGTLSGGEAQRIRLATQIGSA”: the “soluble fraction (log2)” value was -0.347.

As to “HMVFKSAQEGLDFYSKQLNDVDATLGRIRRGEESGNGLYGSNRVKNLEEQRKKLDSFVTAYRNAVNAT”, the “soluble fraction (log2)” value came to 0.177. For the sequence “HMVFTEEEMLEKIKEYLSTNSYINRRAMETLFNLRQSTALKWLGHFTEIGVLRKEGERNYPVYFLNN”, the “soluble fraction (log2)” value was -0.159. For the sequence “HMVGADTISDLISQRGRMIGDKPITNAVIKSGSEFSTINALSKAIASGDARTNDVEGMKPVFR”, the “soluble fraction (log2)” value was -0.0241. “HMVGKGASIILDRVNLPQYLEKFNEDGFDTIESLKNLNEIDLKEMGVKKGHIRVILNYLHEEY”: the “soluble fraction (log2)” value is -0.48. The result for “HMVGLKWYDTGNKKPPIGTEYKNTELSEALKGHDRKEFTWKELDVLGVNITDKEQYIVVGENYYTQV” reads 0.22; that for “HMVGPAHIGLAVAKDQLPHWERHLTANGVEIEGRMRWDHGGESIYFRDPDAHLLELVTPGIWAN”, -0.1; that for “HMVGVDMTVKEEVGKEGVTFTDLRPAGKVEIGNDIYDAVSNTGAFIQKGEKVKIIKYQAGQVYVEKLV”, 0.187. Take “HMVIANADVRAKFSKGKDSFVKYYFKEKVLKDGFTEEVKNNIVQALFYLQIVTRIDGESGVLIIDY”: the “soluble fraction (log2)” value came out at 0.187. With “HMVIDETVLIDLFERLAEDDRPQRVAFRYILALVLLRKRTLQLIGREDEDDGEIWLLRFKGTDGEPIRV”, the “soluble fraction (log2)” value is -2.56. As for “HMVIGKHSGSHTLVNDLAKRGITLDKEESATLLEMVRKAAVGLHRSISSDELYGLYKDMKSGQDPFEDS”, the “soluble fraction (log2)” value is 0.14. The result for “HMVINVKEILERIKLVKGFHTQIEIARFLGVSKGTISNWLARNSVDFPLVISKLDGVDLNWLFTGIGMPQ” reads -0.433; that for “HMVISNDEFEDYLNRATEQLVSELSSGKNPRDAVHDLALTFADQHNKSYDAYQRMADSLEARMHTL”, -0.156. In the case of “HMVITEQTVTVKYLYEDDTEAAPEHSETHKTGETFEIESPKIDGFTPDYELITGTIANDDLVYIVRYKTTP”, the “soluble fraction (log2)” value is -0.526.

With “HMVITQVSTTQTDTTFQYHKVKPKETLFSISRLYEVSIDEIKTINPALNSRELMAGELLKLPIK”, the “soluble fraction (log2)” value was -0.337. The result for “HMVKGIVPNLIGKTQDEAKQMAEEYGFSIGTVSEKASDKPKGTVIEQSPKAGAKASGVTSINIVVSDGS” reads -0.247. In the case of “HMVKKYEKVKEYLLERILDGTYVPDLPIPPERELASLLDVNRMTVRRAVEELMYDGYLIRKKGSGTYLTR”, the “soluble fraction (log2)” value was -0.2. For “HMVKLSVGDIVQFAGGPHYVSSSAAKPASSPTAGPAKVTMIYQGAKHPYHIVHTTSASTVWGWVDADKVVK”, the “soluble fraction (log2)” value is -0.208. The result for “HMVKNLRKLREELGLTQQRLAELTGISKSRIYSYESLDREPDIAGLITLADFFSVSIDYLVGK” reads -1.01. For the sequence “HMVKPKIILADIGMITETDVTLAKASQAVLIAFNVKPSKEAKKLAEDENIKISTYNIIYEVLDFVKKSMSG”, the “soluble fraction (log2)” value worked out at 0.0492. The result for “HMVLALRGIVQGGAEPLVILSDGRTSQSLAVGERFLAYEVVEIGRTGVRLRGPEGEIWLAMASF” reads -1.37. Consider “HMVLANLQAAEQGDLGIKEGEKLTILQTRPDGWWTARNANGETGLVPK”, for which the “soluble fraction (log2)” value was determined as 0.0851. Take “HMVLFDLSEREKEVLKLLADGNSYKMIASRLEITYFTVNAHLKKIYEKLQVHSASEAVSVALRNSL”: the “soluble fraction (log2)” value was -1.36. The result for “HMVLIQNEDVKDISNYPLLSSVPVFDVFNNKMIIPTFNKDSFNPLIYNFNFNSKRRLIYRVDNTNYLIVIK” reads -0.241; that for “HMVLMPIDALRGSSSSSEMRIAAVKFSPSKGWYFSLQERSDEGSSYYEQKVASDGSVSERVKVR”, -0.69; that for “HMVLNVMIEEEVHREIIAAISKLPKERRRVVELSMAGFSQEEIAEKMAISVNTVKTIKLRAYRVLRERLKG”, -0.208. On to “HMVLPELRLQGLPTAVLRLINRATALADDYRRLMEIAEDGRIDEWEAPEFERISENIQRVIAAGFEVL”, for which the “soluble fraction (log2)” value was determined as 0.1.

As to “HMVLQHHTATKALSYHTSASASAAVKGSFARGDSVQVVQGGSQTADGAKWHKVKVGSSYYYAAAEHLTP”, the “soluble fraction (log2)” value is -0.616. With “HMVLTYYSVLGVKTDATTEEIKSTYKQLAIRNHPDRGGSEEVMKMINLAAEILSDPKSRKEYDLSLDA”, the “soluble fraction (log2)” value is -1.48. The result for “HMVLVLPGEMIHVQVIDEGKEMGQGVGYLDDGTMVVVENGLRHIGRAIDVQVTKVLQTNAGRMIFGQPIL” reads -0.952; that for “HMVMAELRISVDRLQIGNYIKLPLSWRDHPFLLSSFMIKKEEQIQLIRQLRLKHVFIIPEKSDAPPKPA”, -1.81. As for “HMVMNYKKIGKKIADRRILLGITQEELAEKVDSSANYISNIETGIKSGSLIFYIKVANELKLSLDFLFSDE”, the “soluble fraction (log2)” value was -0.363. The result for “HMVMPTGRVRYYDAEKGFGFLSKDSGGDDVYVRSSALPAGVTSLKRGQKVEFGIIDGKRGEQALSVHLL” reads 0.0712; that for “HMVMTTVPEVLGMDIRTAASMLTGKNLKYDYDLVESDKPKDEVIEQDQAKGTEVPEGTVVKLKVSKGPA”, 0.247; that for “HMVMTTVPEVLGMDISKAASLLTGKNLDYDYDLVESDKPKDQVIEQDVVKGTEVPEGTVIHLKVSKGPA”, -0.0925. Take “HMVMVVDVLKALSNNSSDKFFNTSISNAIKAQEDSQEDFVTLFGIEYEKLSPNNGLAVIFTSQ”: the “soluble fraction (log2)” value was -0.816. The result for “HMVNDDTIAATEAEILALLADKHRHHITELNSIRRPYEQIDAALSSLINEEKIFQEDGMLFV” reads -0.908; that for “HMVNGEFIDRIKVILQENNATRKKDRLTKTRMYQLLQEEGYEGSYSAFTYQVRIIEEELGINNK”, no less than 0.43. The result for “HMVNSIQIHKKLRLDKRAGSDNWYARLTLPNGKRLVKTTKTEDIETAKEVALRLYYEVDARIQNKLPAT” reads -0.158; that for “HMVPADVQHLRDIVDTMTEKQQLVYKLHVLEGYTFTEIAKLMGTSIPNVKKHYDKAILFIKNNF”, -0.165. Consider “HMVPEEEATKISVQNVGASDYNFTVKGVQANDPTLTLVRGKTYEFDVTSLGHPFWIKTQKVTGSSSQY”, for which the “soluble fraction (log2)” value is -0.139. Consider “HMVPLSPRFFDIFRKRKDLTRQNVDVYFRDHPTEITAFERYIKGLVSQSYIPAERADALLLVASQYKAK”, for which the “soluble fraction (log2)” value is 0.0777. The result for “HMVPSTAVIFTELVSMRSEPATKSPVTHQLTKGTAITINEEKDGWYQVTDQTGNSGWIVKWAVKPTYFTNP” reads 0.31. Regarding “HMVPTYEAYVGKEGLVVGTLRPAGTAEFDGERLDVVSEGEYLEAGTRVQIVRTEGRRIVVRKIN”, the “soluble fraction (log2)” value was -0.233. The result for “HMVPVVGTTIPHEFIGKFGSARVMLKPAVEGSGVIAGGSARAVLELAGYKDIKTKVLGTNNPRNVVYATMN” reads 0.196. “HMVQDDDPNSVAKFIDQVIESNPEQVEQYRSGKEKVFNFFLGQTMRLSKGKANPDLVSELLKEKLS”: the “soluble fraction (log2)” value was -0.00692. For “HMVQIQDIAFSEFLNELEKGNILDVNIKGDLINGNMLDGKKFKTYAPYDPSLVEKLSKQNVTINVEPVN”, the “soluble fraction (log2)” value is -0.06. The result for “HMVQMKIRAYELEPNDFFIKQNMTYRVMRIQNGMIYAKHLLNSTPITFGAKSMEFVLWTGKYS” reads -1.05; that for “HMVQQTEEDVIRDMYVEGKIFTIGEEVTDTYTGVTGKIIRRGTNYVTFMSEDGETYKKWLYEIELA”, -1.82.
